“Also recorded” adds a separate entry of the source.
B1: IFN-α1: Recombinant Interferon-α1, a type I IFN, injected intraperitoneally 3 times weekly at 10^5 IU/dose (protein, UniProt P01562 24-189, looked up)
Interferon alpha-1/13: CDLPETHSLDNRRTLMLLAQMSRISPSSCLMDRHDFGFPQEEFDGNQFQKAPAISVLHELIQQIFNLFTTKDSSAAWDEDLLDKFCTELYQQLNDLEACVMQEERVGETPLMNADSILAVKKYFRRITLYLTEKKYSPCAWEVVRAEIMRSLSLSTNLQERLRRKE

Key:
[1] = tested on: 4T1.2 tumours; experiment: Early treatment setting after primary tumour resection: poly I:C, doxorubicin or combination (bioluminescence imaging); type: in vivo, Balb/c mice; settings: treatment from 2 days after resection for 2 weeks; 25 ug poly I:C every 2 days, 4 mg/kg doxorubicin every 4 days; bioluminescence (FIG. 21)
Procedure: 4T1.2 cells were inoculated into the 4th mammary gland of Balb/c mice. Primary tumours were resected when they reached 0.2 g and 2 days later treatment was started for a period of 2 weeks. Mice were treated with vehicle alone, 25 ug poly I:C every 2 days, 4 mg/kg doxorubicin every 4 days, or the combination of poly I:C and doxorubicin. Metastatic burden was visualised in all mice at a set time point using bioluminescence imaging.

[2] = tested on: 4T1.2 tumours; experiment: 4T1.2 tumour bearing mice treated with poly I:C (bioluminescence imaging, Q-PCR of tumour burden); type: in vivo
Procedure: Mice bearing 4T1.2 cells were treated with 25 ug poly I:C 3× weekly by tail vein injection beginning at day 3. (a) Bioluminescence imaging of 4T1.2 primary tumour burden prior to surgical resection (b) Bioluminescence imaging of metastatic burden in mice treated with vehicle or poly I:C (c) Q-PCR detection of 4T1.2 tumour burden in femur, spine and lung of mice at day 33.
These techniques have previously been described by Eckhardt and colleagues (Eckhardt 2005). Briefly, mice were inoculated with 10^5 cells into the 4th mammary fatpad of female 6-8 week old Balb/c mice. Tumour volumes were monitored by caliper measurement 3 times weekly. […] Metastatic burden in secondary tissues was detected by a Q-PCR based assay using a reporter sequence inserted into the genome of the 4T1.2 cells. Survival assays were conducted in the same way except at day 22 the mice were anaesthetized using either a combination of ketamine hydrochloride (1.2 m/g of mouse)/xylaxil hydrochloride (3 μg/g of mouse) or 2.5% aerosol isoflurane in 100% oxygen and the primary tumour was surgically removed and weighed. […] At time of sacrifice, all mice had evidence of bone and lung metastasis unless otherwise stated. Anti-CD8 (clone 53-6.7, produced in house) and the control antibody rat IgG2a (clone 2A3, produced in house) were injected intraperitoneally at 50 μg per dose on days −1, 0, 1, 4, 7 and subsequently every 7 d. Rabbit anti-asialo GM1 was purchased from Wako chemicals and injected intraperitoneally according to the manufacturer's instructions.

[3] = tested on: 4T1.2 cells; experiment: Real-time RT-PCR of 4T1.2 cells treated with recombinant IFN-α1; type: cell-based, mouse; settings: 4T1.2 cells in vitro, recombinant IFN-α1 1000 IU/mL, real-time RT-PCR (FIG. 6a)
Text: (§1) FIG. 6: The effect of type I IFN treatment on metastasis. (a) Real-time RT-PCR analysis of 4T1.2 cells treated with […] recombinant IFN-α1. (n=3, * p<0.05, error bars are S.E.M.). (b) Proliferation of 4T1.2 cells treated with 1000 IU/mL of recombinant […]. (n=6, error bars are S.E.M.). (c) Primary tumour volume, n=15. (d) Q-PCR detection of metastatic 4T1.2 tumour burden in spine (at day 33 post tumour cell inoculation) of mice treated with IFNα1 or vehicle. (e) H&E stained sections of spines and femurs from 4T1.2 bearing mice treated with IFN-α1 or vehicle (Scale bar=50 T=Tumour). (f) Kaplan-Meier disease-free survival analysis of mice bearing 4T1.2 tumours that were subsequently resected. Mice were treated with 10^5 IU of recombinant IFN-α1 or saline from day 3. (n=15).
66cl4 and 4T1 cell lines were kindly provided by Dr. Fred Miller (Karmanos Cancer Institute, Detroit, Mich.). Derivation of the 4T1.2 line has previously been described (Eckhardt et al. 2005, supra; Lelekakis et al. 1999, supra). Recombinant Interferon-α1 was used at a dose of 1000 IU/mL. Interferon-α receptor blocking antibody (MAR1-5A3) was used at a concentration of 10 μg/mL (Leinco, St Louis, Mo.). G-CSF ELISA was performed according to manufacturer's instructions (R&D Systems, Minneapolis, Minn., USA). Flow cytometry was performed using standard techniques. MDSCs were assessed using Ly6G (clone IA8) and CD11b (clone M1/70) specific antibodies (BD Pharmingen, Franklin Lakes, N.J., USA) at a dilution of 1:200. Flow Cytometry was performed using an LSR-II (BD Pharmingen, San Jose, Calif.). Real-time RT-PCR was performed using standard techniques. In vitro proliferation was assessed using a sulforhodamine B binding assay as previously described (Eckhardt et al. 2005, supra). […]
Expression level of each gene was calculated based on the cycle threshold (CT), set within the linear range of DNA amplification. Expression level (arbitrary units) was calculated as relative transcript abundance (RTA) by: RTA=10000/(2^ΔCT), where ΔCT=CT (gene of interest)−CT(GAPDH).

[4] = tested on: 4T1.2 cells; experiment: In vitro proliferation of 4T1.2 cells (sulforhodamine B binding assay); type: cell-based, mouse; settings: 1000 IU/mL recombinant IFN-α1 (FIG. 6b)
Text: as §1
66cl4 and 4T1 cell lines were kindly provided by Dr. Fred Miller (Karmanos Cancer Institute, Detroit, Mich.). Derivation of the 4T1.2 line has previously been described (Eckhardt et al. 2005, supra; Lelekakis et al. 1999, supra). Recombinant Interferon-α1 was used at a dose of 1000 IU/mL. […] MDSCs were assessed using Ly6G (clone IA8) and CD11b (clone M1/70) specific antibodies (BD Pharmingen, Franklin Lakes, N.J., USA) at a dilution of 1:200. […] In vitro proliferation was assessed using a sulforhodamine B binding assay as previously described (Eckhardt et al. 2005, supra). […]

[5] = tested on: 4T1.2 tumours; experiment: Mouse metastasis assay, 4T1.2 mammary tumours, IFN-α1 treatment; type: in vivo, Balb/c mice
Text: as §1
Female Balb/c mice (6-8 weeks old) were obtained from ARC (Perth, WA, Australia) or Walter and Eliza Hall Institute (Kew, Vic, Australia) breeding facilities. Female NSG mice were obtained from WEHI breeding facility under license from The Jackson Laboratory and Balb/c Ifnar1^−/− (Hwang et al. 1995, supra) were bred in-house. Recombinant IFN-α1 was injected intraperitoneally 3 times weekly at a dose of 10^5 IU/dose. All other mouse assays were performed using standard techniques. Metastasis was assessed using a previously described assay (Eckhardt et al. 2005, supra). Mouse investigations were performed with the approval of the Peter MacCallum Animal Ethics Experimentation Committee.
These techniques have previously been described by Eckhardt and colleagues (Eckhardt 2005). Briefly, mice were inoculated with 10^5 cells into the 4th mammary fatpad of female 6-8 week old Balb/c mice. Tumour volumes were monitored by caliper measurement 3 times weekly. […] Metastatic burden in secondary tissues was detected by a Q-PCR based assay using a reporter sequence inserted into the genome of the 4T1.2 cells. […]

[6] = tested on: 4T1.2 tumours; experiment: Metastasis-free survival assay with primary tumour resection, IFN-α1 treatment; type: in vivo, Balb/c mice
Text: as §1
Female Balb/c mice (6-8 weeks old) were obtained from ARC (Perth, WA, Australia) or Walter and Eliza Hall Institute (Kew, Vic, Australia) breeding facilities. […] Metastasis was assessed using a previously described assay (Eckhardt et al. 2005, supra). […]
These techniques have previously been described by Eckhardt and colleagues (Eckhardt 2005). […] Tumour volumes were monitored by caliper measurement 3 times weekly. […] Metastatic burden in secondary tissues was detected by a Q-PCR based assay using a reporter sequence inserted into the genome of the 4T1.2 cells. […]

[7] = tested on: 4T1.2 tumour bearing mice; experiment: Immune cell populations (flow cytometry) and G-CSF (ELISA) in 4T1.2 tumour bearing mice treated with IFN-α1; type: in vivo, Balb/c mice
Procedure: FIG. 18: Measurement of MDSC and G-CSF in blood of 4T1.2 tumour bearing mice treated with IFNα1. Mice were treated with IFN-al or saline control one day after 4T1.2 tumour cell inoculation into the mammary gland. Five days after tumour inoculation, MDSC percentage (a) and absolute numbers (b) were measured, along with G-CSF levels by ELISA (c).
FIG. 19: Changes in immune cells in the mammary gland, lung and bone. a) Mice were treated with IFN-α1 or saline control on day 1, 3 and 5 after 4T1.2 tumour cell inoculation into the mammary gland. Ten days after tumour inoculation MDSC, NK, CD4^+ and CD8^+ T cell percentages were measured in fatpad/primary tumour, lung and bone marrow. N=5. Difference between treatment groups was assessed using an unpaired T test and significance is indicated. b) Cells isolated from the mammary gland, lung and bone marrow of naïve Balb/c mice were stained for DX5, TCR, CD11b and CD27. Shown are representative profiles for CD11b and CD27 expression on gated DX5^+TCR. Percentage of CD11b^low/high and/or CD27^low/high are indicated.
66cl4 and 4T1 cell lines were kindly provided by Dr. Fred Miller (Karmanos Cancer Institute, Detroit, Mich.). Derivation of the 4T1.2 line has previously been described (Eckhardt et al. 2005, supra; Lelekakis et al. 1999, supra). Recombinant Interferon-α1 was used at a dose of 1000 IU/mL. Interferon-α receptor blocking antibody (MAR1-5A3) was used at a concentration of 10 μg/mL (Leinco, St Louis, Mo.). G-CSF ELISA was performed according to manufacturer's instructions (R&D Systems, Minneapolis, Minn., USA). Flow cytometry was performed using standard techniques. MDSCs were assessed using Ly6G (clone IA8) and CD11b (clone M1/70) specific antibodies (BD Pharmingen, Franklin Lakes, N.J., USA) at a dilution of 1:200. Flow Cytometry was performed using an LSR-II (BD Pharmingen, San Jose, Calif.). Real-time RT-PCR was performed using standard techniques. In vitro proliferation was assessed using a sulforhodamine B binding assay as previously described (Eckhardt et al. 2005, supra). Immunohistochemistry was performed using standard techniques, using α-mouse Irf7 (Zymed/Invitrogen, Carlsbad, Calif., USA) α-human Irf7 (BD Pharmingen, Franklin Lakes, N.J., USA) at a concentration of 5 μg/mL.

[8] = IFN-α1 on day 1, 3 and 5, measured ten days after tumour inoculation (FIG. 19a)

Molecule	metastasis at end point [1]	primary tumour growth ([2]; 25 ug poly I:C 3x weekly by tail vein injection from day 3, bioluminescence imaging (FIG. 20a))	metastatic burden in lung and bone ([2]; 25 ug poly I:C 3x weekly, PCR detection of tumour cell markers at day 33 (FIG. 20c))	metastasis to multiple organs ([2]; 25 ug poly I:C 3x weekly, bioluminescence after primary tumour resection (FIG. 20b))	expression of Irf7 [3]	expression of Irf9 [3]	expression of STAT1 [3]	4T1.2 cell proliferation in vitro [4]	metastasis to the spine and femur ([5]; 10^5 IU/dose i.p. 3 times weekly, Q-PCR at day 33 and H&E, vs vehicle, P<0.007 (FIG. 6d, e))	extent of metastasis to lung ([5]; 10^5 IU/dose i.p. 3 times weekly, Q-PCR, endpoint day 33 (FIG. 17))	primary tumour growth in vivo ([5]; 10^5 IU/dose intraperitoneally 3 times weekly (FIG. 6c))	metastasis-free survival ([6]; 10^5 IU recombinant IFN-α1 or saline for five weeks, primary tumour resection at 3 weeks (FIG. 6f))	growth of primary tumours ([6]; survival study, treatment for five weeks, primary tumour resection at 3 weeks)	G-CSF levels in the peripheral blood ([7]; 4T1.2 tumour bearing mice, IFN-α1 vs saline, ELISA (FIG. 18c))	MDSC accumulation in the peripheral blood ([7]; 4T1.2 tumour bearing mice, IFN-α1 vs saline, five days after tumour inoculation (FIG. 18), listed as IFN)	CD11b+Ly6G+ MDSC in the bone marrow [7, 8]	NK cells at the primary site or in lungs [7, 8]	NK cells in the bone marrow [7, 8]
COc1cccc2c1C(=O)c1c(O)c3c(c(O)c1C2=O)C[C@@](O)(C(=O)CO)C[C@@H]3O[C@H]1C[C@H](N)[C@H](O)[C@H](C)O1 [doxorubicin]	did not significantly impact metastasis	–	–	–	–	–	–	–	–	–	–	–	–	–	–	–	–	–
poly I:C	did not significantly impact metastasis	did not alter	significant decrease	suppressed metastasis to multiple organs; also recorded: suppresses metastasis	–	–	–	–	–	–	–	–	–	–	–	–	–	–
B1	–	–	–	–	increased expression	increased expression	increased expression	did not affect	significantly reduced metastasis to the spine and femur to undetectable levels	not reduced	did not affect	significant extension	no effect	decreased	significantly decreased	significantly decreased	not observed	significantly increased
